Reference: US20190276541A1 (Seagen, published 2019)

Target: T1, CD3 on human T cells (human, UniProt P07766 23-207)
T1 construct: whole, on cells; The native CD3 complex on primary T cells, which were gated with anti-CD2-FITC; also called T cell receptor CD3; CD3 complex
Test: flow cytometry on human T cells in PBMCs, anti-Fc Alexa 647 secondary
Procedure: T cells are used to assess binding of antibodies to CD3. For T cell binding assay, PBMCs are isolated from 100 ml of human blood sample using the protocol described previously. […] 50 μl of cells are added to each well of an assay plate. […] Equal volumes of PBMCs and bispecific antibody dilutions are mixed to produce a binding curve. Anti-CD2-FITC (BD Biosciences, San Jose, Calif.) is added to each well to selectively stain T cells. The plate is incubated for 1 hour at 4° C. Cells are washed and pelleted three times with FACS buffer consisting of PBS, 5% FBS and 0.05% sodium azide. […] Cells are washed and pelleted three times again with FACS buffer. Cells are then resuspended in 200 μL FACS buffer and analyzed on a BD ACCURI™ C6 flow cytometer (BD Biosciences, San Jose, Calif.).

T1 sequence (P07766 23-207): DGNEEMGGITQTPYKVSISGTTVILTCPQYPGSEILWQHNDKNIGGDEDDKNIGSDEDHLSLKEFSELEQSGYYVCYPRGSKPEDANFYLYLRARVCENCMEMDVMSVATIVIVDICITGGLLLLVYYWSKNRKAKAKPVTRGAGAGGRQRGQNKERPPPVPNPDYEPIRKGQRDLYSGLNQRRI

B1: 2G12-2B2 having VL0 and VH3 variable domains (antibody, V domains shown)
VH: EVQLVQSGAEVKKPGASVKVSCKASGYTFTDHAIHWVRQAPGQGLEWMGYFSPGNDDIKYNEKFRGRVTMTADKSSSTAYMELRSLRSDDTAVYFCKRSLSTPYWGQGTLVTVSS
VL: DIVMTQSPDSLAVSLGERATINCKSSQSLLNRGNHKNYLTWYQQKPGQPPKLLIYWASTRESGVPDRFSGSGSGTDFTLTISSLQAEDVAVYYCQNDYTYPYTFGQGTKVEIK
notes: also called 2G12-2B2 control; 2G12-2B2 comprising VL0 and VH3
B1: no binding (tested: 0 to 10 µg per 500,000 cells).
